Measured values reported in US7371551B1, “Feedback-resistant homoserine transsuccinylases” (priority 2002, dated 2008).
Changes are numbered by the printed parent chain.

B1: pSLmetAH: MetA variant with His instead of Asp at position 101 (protein, UniProt P07623 2-309, looked up, variant D101H)
Homoserine …: PIRVPDELPAVNFLREENVFVMTTSRASGQEIRPLKVLILNLMPKKIETENQFLRLLSNSPLQVDIQLLRIDSRESRNTPAEHLNNFYCNFEDIQDQNFHGLIVTGAPLGLVEFNDVAYWPQIKQVLEWSKDHVTSTLFVCWAVQAALNILYGIPKQTRTEKLSGVYEHHILHPHALLTRGFDDSFLAPHSRYADFPAALIRDYTDLEILAETEEGDAYLFASKDKRIAFVTGHPEYDAQTLAQEFFRDVEAGLDPDVPYNYFPHNDPQNTPRASWRSHGNLLFTNWLNYYVYQITPYDLRHMNPTLD
B2: pSLmetAC: MetA variant with Cys instead of Asp at position 101 (protein, UniProt P07623 2-309, looked up, variant D101C)
Homoserine …: B1 Homoserine … with H100C
B3: pSLmetAA: MetA variant with Ala instead of Asp at position 101 (protein, UniProt P07623 2-309, looked up, variant D101A)
Homoserine …: B1 Homoserine … with H100A
B4: pSLmetAS: MetA variant with Ser instead of Asp at position 101 (protein, UniProt P07623 2-309, looked up, variant D101S)
Homoserine …: B1 Homoserine … with H100S
B5: pSLmetAY: MetA variant with Tyr instead of Asp at position 101 (protein, UniProt P07623 2-309, looked up, variant D101Y)
Homoserine …: B1 Homoserine … with H100Y
B6: pSLmetAI: MetA variant with Ile instead of Asp at position 101 (protein, UniProt P07623 2-309, looked up, variant D101I)
Homoserine …: B1 Homoserine … with H100I

How the values were obtained:
[1] = biological target: T1, E. coli homoserine transsuccinylase (MetA, SEQ ID No. 2) variant pKP446, Tyr294 replaced with Cys (Escherichia coli, UniProt P07623, Y294C); assay: biochemical; conditions: pH 7.6, read-out: Activity (%) in the presence of 1 mM L-methionine
T1 construct: made in house; host or cells: E. coli W3110 (ATCC 27325), cell extract
From the text: (§1) Any method which enables the activity of the enzyme to be determined in the presence of L-methionine or SAM can be used for determining the sensitivity of the homoserine transsuccinylase to L-methionine and/or SAM. For example, the homoserine transsuccinylase activity can be determined by following the method described by Kredich and Tomkins for determining the activity of serine acetyltransferases (Kredich N. M. and Tomkins G. M., J. Biol. Chem. 241, 4955-4965 (1966)). The enzyme activity is measured in an assay sample which contains homoserine and succinyl-CoA. The reaction is started by adding enzyme and monitored in a spectrophotometer by way of the decrease in the extinction at 232 nm which results from cleavage of the thioester bond in the succinyl-coenzyme A. The described test is suitable for determining the sensitivity of the homoserine transsuccinylases to methionine. The inhibition of homoserine transsuccinylase activity is tested in the presence of different concentrations of L-methionine in the reaction mixture.
(§2) The activity, and the influence of L-methionine on the activity, of the different homoserine transsuccinylases were determined by means of an enzyme test using cell extracts in which the respective proteins had been produced. For this, the corresponding plasmids, encoding altered homoserine transsuccinylases, were introduced, by transformation, into the E. coli strain W3110 (ATCC 27325) using methods known to the skilled person. The transformation mixture was spread on LB-tetracycline agar plates (10 g of tryptone/l, 5 g of yeast extract/l, 5 g of NaCl/l, 15 g of agar/l and 15 mg of tetracycline/l) and incubated at 37° C. overnight. The resulting transformants were grown in SM1 medium (for 1 l of medium: CaCl2×2H2O, 0.0147 g, MgSO4×7H2O, 0.3 g, Na2MoO4×2H2O, 0.15 mg, H3BO3, 2.5 mg, CoCl2×6H2O, 0.7 mg, CuSO4×5H2O, 0.25 mg, MnCl2×4H2O, 1.6 mg, ZnSO4×7H2O, 0.3 mg, KH2PO4, 3.0 g, K2HPO4, 12.0 g, (NH4)2SO4, 5 g, NaCl, 0.6 g, FeSO4×7H2O, 0.002 g, Na3-citrate×2H2O, 1 g, glucose, 5 g, tryptone, 1 g, yeast extract, 0.5 g), centrifuged down at an absorption of approx. 0.8 at 600 nm, washed in 50 mM Tris pH 7.5, and centrifuged down once again. The cells were resuspended in 50 mM Tris/Cl, pH 7.5, 2 mM dithiothreitol, 0.5 mM phenylmethylsulfonyl fluoride and disrupted in a French press. The supernatant from a further centrifugation was used as the enzyme extract in the test. The enzyme activity was determined, in a mixture containing 50 mM Tris/Cl, pH 7.6, 1 mM homoserine and 0.1 mM succinyl-CoA, by photometrically quantifying, by means of the decrease in the extinction at 232 nm, the coenzyme A formed in the reaction, following the method described by Kredich and Tomkins for determining the activity of serine acetyltransferases (Kredich N. M. and Tomkins G. M., J. Biol. Chem. 241, 4955-4965 (1966)). The effect of added L-methionine on the activity was determined and the inhibitability was quantified as a Ki value. The Ki which is determined is the concentration of L-methionine at which the activity of the homoserine transsuccinylase is only 50% of its activity in the absence of L-methionine.

[2] = biological target: T2, E. coli homoserine transsuccinylase (MetA, SEQ ID No. 2) variant pSLmetA*0, amino acid 294 (Tyr) deleted (Escherichia coli, UniProt P07623, DEL294-294); assay: biochemical; conditions: pH 7.6, read-out: Activity (%) in the presence of 1 mM L-methionine
T2 construct: made in house; host or cells: E. coli W3110 (ATCC 27325), cell extract
From the text: as §1, §2

[3] = biological target: T3, E. coli homoserine transsuccinylase (MetA, SEQ ID No. 2) variant pSLmetA*A, Tyr294 replaced with Ala (Escherichia coli, UniProt P07623, Y294A); assay: biochemical; conditions: pH 7.6, read-out: Activity (%) in the presence of 1 mM L-methionine
T3 construct: made in house; host or cells: E. coli W3110 (ATCC 27325), cell extract
From the text: as §1, §2

[4] = biological target: T4, E. coli homoserine transsuccinylase (MetA, SEQ ID No. 2) variant pSLmetA*K, Tyr294 replaced with Lys (Escherichia coli, UniProt P07623, Y294K); assay: biochemical; conditions: pH 7.6, read-out: Activity (%) in the presence of 1 mM L-methionine
T4 construct: made in house; host or cells: E. coli W3110 (ATCC 27325), cell extract
From the text: as §1, §2

[5] = biological target: T5, E. coli homoserine transsuccinylase (MetA, SEQ ID No. 2) variant pSLmetA*L, Tyr294 replaced with Leu (Escherichia coli, UniProt P07623, Y294L); assay: biochemical; conditions: pH 7.6, read-out: Activity (%) in the presence of 1 mM L-methionine
T5 construct: made in house; host or cells: E. coli W3110 (ATCC 27325), cell extract
From the text: as §1, §2

[6] = biological target: T6, E. coli homoserine transsuccinylase (MetA, SEQ ID No. 2) variant pSLmetA*P, Tyr294 replaced with Pro (Escherichia coli, UniProt P07623, Y294P); assay: biochemical; conditions: pH 7.6, read-out: Activity (%) in the presence of 1 mM L-methionine
T6 construct: made in house; host or cells: E. coli W3110 (ATCC 27325), cell extract
From the text: as §1, §2

[7] = biological target: T7, E. coli homoserine transsuccinylase (MetA, SEQ ID No. 2) variant pSLmetA*Q, Tyr294 replaced with Gln (Escherichia coli, UniProt P07623, Y294Q); assay: biochemical; conditions: pH 7.6, read-out: Activity (%) in the presence of 1 mM L-methionine
T7 construct: made in house; host or cells: E. coli W3110 (ATCC 27325), cell extract
From the text: as §1, §2

[8] = biological target: T8, E. coli homoserine transsuccinylase (MetA, SEQ ID No. 2) variant pSLmetAN, Asp101 replaced with Asn (Escherichia coli, UniProt P07623, D101N); assay: biochemical; conditions: pH 7.6, read-out: Activity (%) in the presence of 1 mM L-methionine
T8 construct: made in house; host or cells: E. coli W3110 (ATCC 27325), cell extract
From the text: as §1, §2

[9] = system: homoserine transsuccinylase; assay: Homoserine transsuccinylase enzyme test using cell extracts, decrease in extinction at 232 nm, with and without L-methionine; assay type: biochemical, E. coli; conditions: for Activity (%) in the presence of 1 mM L-methionine: activity in the absence of L-methionine corresponds to 100%; for Activity (U/mg): cell extract of E. coli W3110 transformants, 1 mM homoserine, 0.1 mM succinyl-CoA, 50 mM Tris/Cl pH 7.6; for Ki: concentration of L-methionine at which activity is only 50% of activity in its absence
From the text: as §1, §2

[10] = system: homoserine transsuccinylase; assay: Homoserine transsuccinylase activity test (Lee et al.), 5,5'-dithiobis(2-nitrobenzoic acid), absorption at 412 nm, with and without SAM; assay type: biochemical, E. coli; conditions: for Activity (%) in the presence of 1 mM SAM: activity in the absence of SAM corresponds to 100%; for Ki: SAM (Cl salt, Sigma) as inhibitor; for Activity (U/mg): cell extract, 3 mM homoserine, 0.3 mM succinyl-CoA, 50 mM potassium phosphate buffer pH 7.5
Procedure: In order to determine the sensitivity of the activity of the different homoserine transsuccinylases to SAM, it is possible, for example, to carry out an activity test as described in Lee L. W. et al., J. Biol. Chem. 241, 5479-5480 (1966). In this method, the enzyme extract is incubated with homoserine and succinyl-CoA. After various times, a part of the test assay sample is stopped by adding it to a mixture of ethanol, water, and 5,5′-dithiobis(2-nitrobenzoic acid). The absorption is determined photometrically at 412 nm. The described test is suitable, for example, for determining the sensitivity of the homoserine transsuccinylases to SAM.
The influence of SAM on the activities of the different homoserine transsuccinylases was determined by quantifying the activity in the presence of different concentrations of SAM (Cl salt, Sigma). The cell extracts were grown and prepared as described in Example 3. The activity test was carried out as described in Lee L. W. et al., J. Biol. Chem. 241, 5479-5480 (1966), with the enzyme extract being incubated with 50 mM potassium phosphate buffer, pH 7.5, 3 mM homoserine and 0.3 mM succinyl-CoA. After various times, 100 μl volumes of test mixture were stopped by adding them in each case to a mixture of 400 μl of ethanol, 400 μl of water and 100 μl of 10 mM 5,5′-dithiobis(2-nitrobenzoic acid). After the resulting mixture had been incubated at room temperature for 5 minutes, the absorption was determined photometrically at 412 nm. After the protein concentration had been determined, the enzyme activity was calculated using the extinction coefficient. The Ki was determined as a measure of the ability of SAM to inhibit the activity.

T2 sequence (P07623 other isoform, or with tags, fused parts or gaps DEL294-294): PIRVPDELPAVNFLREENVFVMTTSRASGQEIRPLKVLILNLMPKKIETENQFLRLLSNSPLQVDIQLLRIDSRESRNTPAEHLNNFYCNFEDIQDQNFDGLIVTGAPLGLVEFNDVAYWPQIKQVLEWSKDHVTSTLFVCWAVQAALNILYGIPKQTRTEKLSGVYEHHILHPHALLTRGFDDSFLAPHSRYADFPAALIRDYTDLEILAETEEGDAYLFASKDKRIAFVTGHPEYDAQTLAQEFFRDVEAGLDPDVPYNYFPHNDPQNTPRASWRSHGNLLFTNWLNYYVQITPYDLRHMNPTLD
T4 sequence (P07623 2-309 Y294K): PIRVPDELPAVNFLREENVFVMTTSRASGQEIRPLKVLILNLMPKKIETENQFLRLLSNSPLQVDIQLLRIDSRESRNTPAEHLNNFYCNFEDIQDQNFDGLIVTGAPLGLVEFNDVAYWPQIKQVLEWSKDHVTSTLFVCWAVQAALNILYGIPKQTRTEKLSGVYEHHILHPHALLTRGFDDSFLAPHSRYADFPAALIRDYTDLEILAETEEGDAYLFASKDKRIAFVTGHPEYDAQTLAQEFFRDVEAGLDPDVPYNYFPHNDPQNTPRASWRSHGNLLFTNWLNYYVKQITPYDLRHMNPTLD
T6 sequence (P07623 2-309 Y294P): as the sequence (P07623 2-309 Y294K) above, with K293P counted along it
T5 sequence (P07623 2-309 Y294L): as the sequence (P07623 2-309 Y294K) above, with K293L counted along it
T8 sequence (P07623 2-309 D101N): as the sequence (P07623 2-309 Y294K) above, with D100N, K293Y counted along it
T1 sequence (P07623 2-309 Y294C): as the sequence (P07623 2-309 Y294K) above, with K293C counted along it
T7 sequence (P07623 2-309 Y294Q): as the sequence (P07623 2-309 Y294K) above, with K293Q counted along it
T3 sequence (P07623 2-309 Y294A): as the sequence (P07623 2-309 Y294K) above, with K293A counted along it

Molecule | activity at 1000 µM [1] [%] | activity at 1000 µM [2] [%] | activity at 1000 µM [3] [%] | activity at 1000 µM [4] [%] | activity at 1000 µM [5] [%] | activity at 1000 µM [6] [%] | activity at 1000 µM [7] [%] | activity at 1000 µM [8] [%] | Activity (%) in the presence of 1 mM L-methionine [9] [%] | Activity (U/mg) [9] [U/mg] | Ki [9] [mM] | Activity (%) in the presence of 1 mM SAM [10] [%] | Ki [10] [mM] | Activity (U/mg) [10] [U/mg]
CSCC[C@H](N)C(=O)O [L-methionine] | 96 | 98 | 94 | 92 | 89 | 91 | 95 | 86 | – | – | – | – | – | –
B1 | – | – | – | – | – | – | – | – | 90 | 0.045 | 12 | 93 | 16 | 0.27
B2 | – | – | – | – | – | – | – | – | 92 | 0.084 | 5 | 91 | 7 | 0.51
B3 | – | – | – | – | – | – | – | – | 96 | 0.031 | 6 | 90 | 8 | 0.20
B4 | – | – | – | – | – | – | – | – | 89 | 0.027 | 7.5 | – | 10 | 0.15
B5 | – | – | – | – | – | – | – | – | 93 | 0.094 | 10 | 95 | 14 | 0.61
B6 | – | – | – | – | – | – | – | – | 95 | 0.107 | 9.5 | 93 | 12 | 0.68
